In US20060286609A1 (BIOCHECK, published 2006):

T1: Human Id3: Histidine (human, UniProt Q02535 1-119, limits assumed)
T1 construct: E. coli fusion protein (vector pGW07); also called h-Id3: His; not shown: His-tag
T1 sequence (looked up): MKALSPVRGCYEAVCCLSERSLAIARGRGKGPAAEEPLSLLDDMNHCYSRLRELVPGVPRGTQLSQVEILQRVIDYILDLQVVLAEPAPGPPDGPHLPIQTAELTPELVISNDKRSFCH

T2: Mouse Id2: Histidine (mouse, UniProt P41136 1-134, limits assumed)
T2 construct: E. coli fusion protein (vector pGW07); also called m-Id2: His; not shown: His-tag
T2 sequence (looked up): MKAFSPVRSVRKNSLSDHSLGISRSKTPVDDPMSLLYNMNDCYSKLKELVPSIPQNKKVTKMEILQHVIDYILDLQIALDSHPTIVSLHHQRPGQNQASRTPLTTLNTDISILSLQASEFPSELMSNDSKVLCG

T3: Mouse Id3: Histidine (mouse, UniProt P41133 1-119, limits assumed)
T3 construct: E. coli fusion protein (vector pGW07); also called m-Id3: His; not shown: His-tag
T3 sequence (looked up): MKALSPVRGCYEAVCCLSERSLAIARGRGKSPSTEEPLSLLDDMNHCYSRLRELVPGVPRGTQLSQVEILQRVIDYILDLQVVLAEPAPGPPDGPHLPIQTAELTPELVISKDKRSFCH

T4: Human Id2: Histidine (human, UniProt Q02363 1-134, limits assumed)
T4 construct: E. coli fusion protein (vector pGW07); also called h-Id2: His; not shown: His-tag
T4 sequence (looked up): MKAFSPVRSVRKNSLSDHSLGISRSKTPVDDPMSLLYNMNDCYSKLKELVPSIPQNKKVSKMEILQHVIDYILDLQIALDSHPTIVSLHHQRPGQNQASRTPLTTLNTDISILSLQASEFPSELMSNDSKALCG

T5: Mouse Id4: Histidine (mouse, UniProt P41139 1-161, limits assumed)
T5 construct: E. coli fusion protein (vector pGW07); also called m-Id4: His; not shown: His-tag
T5 sequence (looked up): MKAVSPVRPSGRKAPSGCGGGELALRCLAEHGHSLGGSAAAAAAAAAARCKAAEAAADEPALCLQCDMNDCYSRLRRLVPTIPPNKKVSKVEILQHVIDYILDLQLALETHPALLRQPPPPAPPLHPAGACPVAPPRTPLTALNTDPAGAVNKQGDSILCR

T6: Mouse Id1: Histidine (mouse, UniProt P20067-2 1-148)
T6 construct: E. coli fusion protein (vector pGW07); also called m-Id1-His; not shown: His-tag
T6 sequence: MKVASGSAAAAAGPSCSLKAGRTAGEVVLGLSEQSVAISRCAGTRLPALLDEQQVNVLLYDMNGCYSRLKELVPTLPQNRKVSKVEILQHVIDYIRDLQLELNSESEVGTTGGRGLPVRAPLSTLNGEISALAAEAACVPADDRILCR

T7: Human Id4: Histidine (human, UniProt P47928 1-161, limits assumed)
T7 construct: E. coli fusion protein (vector pGW07); also called h-Id4: His; not shown: His-tag
T7 sequence (looked up): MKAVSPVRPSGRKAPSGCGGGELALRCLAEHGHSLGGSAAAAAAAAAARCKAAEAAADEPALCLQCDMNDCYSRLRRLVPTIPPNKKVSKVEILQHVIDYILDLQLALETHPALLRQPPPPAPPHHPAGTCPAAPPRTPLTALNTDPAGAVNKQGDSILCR

B1: rabbit monoclonal anti-mouse Id1, clone #BCH-1/#37-2 (antibody, V domains shown)
VH: QSVEESGGRLVTPGTPLTLTCKVSGFDINSYAMDWFRQAPGKGLEWIGMMSTRGNTYYTSWAKGRFTISKTSSTTVDLKMTSLTTEDTATYFCARGGLWGPGTLVTVSS
VL: RVLTQTASPVSAAVGGTVTINCQASQSVYNGNRLGWYQLKPGQSPKELIHDASTLASGVPSRFRGSGSGTQFTLTINDVQCDDAATYYCVGSYACSTGDCNVFGGGTEVVVK
notes: Rabbit IgG from hybridoma, Protein G purified; also called m Id1 MoAb 37-2; Rabbit Monoclonal Anti-Mouse Id1 (#37-2)

Key:
Human Id3: Histidine [1] = molecular target: T1, Human Id3: Histidine; experiment: ELISA, coated antigen, Ab 0.500 ug/ml
Mouse Id2: Histidine [2] = molecular target: T2, Mouse Id2: Histidine; experiment: ELISA, coated antigen, Ab 0.500 ug/ml
Mouse Id3: Histidine [3] = molecular target: T3, Mouse Id3: Histidine; experiment: ELISA, coated antigen, Ab 0.500 ug/ml
Human Id2: Histidine [4] = molecular target: T4, Human Id2: Histidine; experiment: ELISA, coated antigen, Ab 0.500 ug/ml
Mouse Id4: Histidine [5] = molecular target: T5, Mouse Id4: Histidine; experiment: ELISA, coated antigen, Ab 0.500 ug/ml
Mouse Id1: Histidine [6] = molecular target: T6, Mouse Id1: Histidine; experiment: ELISA, coated antigen, Ab 0.500 ug/ml
Human Id4: Histidine [7] = molecular target: T7, Human Id4: Histidine; experiment: ELISA, coated antigen, Ab 0.500 ug/ml
Human Id3: Histidine [8] = molecular target: T1, Human Id3: Histidine; experiment: ELISA, coated antigen, Ab 0.000 ug/ml (blank, diluent only)
Mouse Id2: Histidine [9] = molecular target: T2, Mouse Id2: Histidine; experiment: as above
Mouse Id3: Histidine [10] = molecular target: T3, Mouse Id3: Histidine; experiment: as above
Human Id2: Histidine [11] = molecular target: T4, Human Id2: Histidine; experiment: as above
Mouse Id4: Histidine [12] = molecular target: T5, Mouse Id4: Histidine; experiment: as above
Mouse Id1: Histidine [13] = molecular target: T6, Mouse Id1: Histidine; experiment: as above
Human Id4: Histidine [14] = molecular target: T7, Human Id4: Histidine; experiment: as above
Human Id3: Histidine [15] = molecular target: T1, Human Id3: Histidine; experiment: ELISA, coated antigen, Ab 0.010 ug/ml
Mouse Id2: Histidine [16] = molecular target: T2, Mouse Id2: Histidine; experiment: ELISA, coated antigen, Ab 0.010 ug/ml
Mouse Id3: Histidine [17] = molecular target: T3, Mouse Id3: Histidine; experiment: ELISA, coated antigen, Ab 0.010 ug/ml
Mouse Id1: Histidine [18] = molecular target: T6, Mouse Id1: Histidine; experiment: ELISA, coated antigen, Ab 0.010 ug/ml
Human Id3: Histidine [19] = molecular target: T1, Human Id3: Histidine; experiment: ELISA, coated antigen; relative to mouse Id1
Mouse Id2: Histidine [20] = molecular target: T2, Mouse Id2: Histidine; experiment: ELISA, coated antigen; relative to mouse Id1
Mouse Id4: Histidine [21] = molecular target: T5, Mouse Id4: Histidine; experiment: ELISA, coated antigen; relative to mouse Id1
Human Id4: Histidine [22] = molecular target: T7, Human Id4: Histidine; experiment: ELISA, coated antigen; relative to mouse Id1

Molecule	A450 (Human Id3: Histidine [1])	A450 (Mouse Id2: Histidine [2])	A450 (Mouse Id3: Histidine [3])	A450 (Human Id2: Histidine [4])	A450 (Mouse Id4: Histidine [5])	A450 (Mouse Id1: Histidine [6])	A450 (Human Id4: Histidine [7])	A450 (Human Id3: Histidine [8])	A450 (Mouse Id2: Histidine [9])	A450 (Mouse Id3: Histidine [10])	A450 (Human Id2: Histidine [11])	A450 (Mouse Id4: Histidine [12])	A450 (Mouse Id1: Histidine [13])	A450 (Human Id4: Histidine [14])	A450 (Human Id3: Histidine [15])	A450 (Mouse Id2: Histidine [16])	A450 (Mouse Id3: Histidine [17])	A450 (Mouse Id1: Histidine [18])	Cross-reactivity (%) (Human Id3: Histidine [19])	Cross-reactivity (%) (Mouse Id2: Histidine [20])	further results
rabbit monoclonal anti-human Id1, clone #BCH-2/#5-3 (antibody)	0.052 A450	0.049 A450	0.05 A450	0.062 A450	0.05 A450	0.151 A450	0.056 A450	0.052 A450	0.051 A450	0.058 A450	0.049 A450	0.045 A450	0.046 A450	0.046 A450	0.044 A450	0.049 A450	0.048 A450	0.068 A450			
rabbit monoclonal anti-mouse/human Id1, clone #BCH-1/#195-14 (antibody)	0.053 A450	0.057 A450	0.051 A450	0.072 A450	0.049 A450	2.79 A450	0.048 A450	0.049 A450	0.051 A450	0.05 A450	0.058 A450	0.047 A450	0.045 A450	0.046 A450	0.048 A450	0.048 A450	0.047 A450	0.424 A450	< 1%	< 1%	Cross-reactivity (%) (Mouse Id4: Histidine [21]): < 1%; Cross-reactivity (%) (Human Id4: Histidine [22]): < 1%
B1																			< 1%	< 1%	Cross-reactivity (%) (Mouse Id4: Histidine [21]): < 1%; Cross-reactivity (%) (Human Id4: Histidine [22]): < 1%
